The target in this test is HIV-1 gp41 (Env of HIV-1 BaL) (HIV-1 BaL). Put plainly: cell-based or functional assay.

B1: RC-101 (single lysine congener of retrocyclin) (peptide)
peptide: cyclo(RCICGRGICRCICGKGIC)
modifications: disulfide (positions not given here); also: three disulfide bridges, pairing not given here
For B1, the “IC50 of inhibition of HIV-1 BaL entry in TZM-bl cells (luciferase)” value stood at 2 µg/mL.

The values are drawn from US20110190385A1 (UNIVERSITY OF CENTRAL FLORIDA RESEARCH FOUNDATION, published 2011).
